This data set is described as follows: soluble on expression in E. coli; label from the status in PepcDB or PDB records.
In the case of “MRDFNNAQITRLKVRQNAVFEKLDLEFKDGLSAISGASGVGKSVLIASLLGAFGLKESNASNIEVELIAPFLDTEEYGIFREDEHEPLVISVIKKEKTRYFLNQTSLSKNTLKALLKGLIKRLSNDRFSQNELNDILMLSLLDGYIQNENKAFSPLLGALEEKFTRLEKLEKERRLLEDKKRFQKDLEERLNFEKMKLERLDLKEDEYERLLEQKKLLSSKEKLNDKIALAL”, the “soluble on expression in E. coli” value was “not soluble”.

Turning to “MGNWLLPEGLADVLPAEARRIEELRRELLDLYRTYGFELVAPPLVEYIDSLLSSTGSDLNLRTCKLVDQLSGRTLGVRADMTSQVTRIDAHLLNRAGVTRLCYCGSVLHARPADLLSSRELLQIGAEIYGHAGFEADLEIIQLVMDTLATAGVRNARLDLCHSGVMRAIFDADPQASRHAGDLCTLLREKDVPGLAELASRVDGLGEDTVRALQALATLYGGPEIIARARRELPAVPGMAQALDALQALVDAMPGVTLSVDLADVGGYGYHSGVTFAVYGEDWHDALVRGGRYDDVSRAFGRARPATGFSLDLRKLAAGLTPAEPARAVRAPWGQDPALTDAVRRLRRSGEIVVQVLPGHEQGLDEFVCDRELALQDGAWTVRTL”, the “soluble on expression in E. coli” value is recorded as “not soluble”.

In the case of “MSLKNLPIGGVWKGKVKLHSNSPAQDYFANITLNTLDPNHIDVFFPEFAHATPRVQLDLHPTGSVNGSNYAQDLTMLDMCLYDGFNGNAISYEIMLKDEGRPAAGRRDGYFSIYRQGGTTTDEGERIDYRVKMYNPETGGQIDVRNNENMVWNSINLKRVRPVVLPGIRYAVMCVPTPLTLAVDKFSVMDKQAGYYMGKLSVIFTPSLPTINEGHHHHHH”, the “soluble on expression in E. coli” value is given as “soluble”.

Consider “MDHPDPNKWADCVHCGMCLEACPTYELTGHEQQSPRGRVHLIKSVAEGKLEVNEAFADPVFTCLDCRACETACPADVEVGGLIEEARGQIRQALPLEHHHHHH”, for which the “soluble on expression in E. coli” value was “soluble”.

On to “MAIDVLDVISLSLFKQQIEFEEDDRDELITLYAQAAFDYCMRWCDEPAWKVAADIPAAVKGAVLLVFADMFEHRTAQSEVQLYENAAAERMMFIHRNWRGKAESEEGS”, for which the “soluble on expression in E. coli” value was “soluble”.

With “MPNSEPASLLELFNSIATQGELVRSLKAGNASKDEIDSAVKMLVSLKMSYKAAAGEDYKADCPPGNPAPTSNHGPDATEAEEDFVDPWTVQTSSAKGIDYDKLIVRFGSSKIDKELINRIERATGQRPHHFLRRGIFFSHRDMNQVLDAYENKKPFYLYTGRGPSSEAMHVGHLIPFIFTKWLQDVFNVPLVIQMTDDEKYLWKDLTLDQAYGDAVENAKDIIACGFDINKTFIFSDLDYMGMSSGFYKNVVKIQKHVTFNQVKGIFGFTDSDCIGKISFPAIQAAPSFSNSFPQIFRDRTDIQCLIPCAIDQDPYFRMTRDVAPRIGYPKPALLHSTFFPALQGAQTKMSASDPNSSIFLTDTAKQIKTKVNKHAFSGGRDTIEEHRQFGGNCDVDVSFMYLTFFLEDDDKLEQIRKDYTSGAMLTGELKKALIEVLQPLIAEHQARRKEVTDEIVKEFMTPRKLAAALEHHHHHH”, the “soluble on expression in E. coli” value was “soluble”.

As for “MAHHHHHHMVKGDCIRAAHLLIKFDGSRNCVSHRTGKSTADLTYDAALAELKQWAKRIADGEITFEDAARQRSDCGSYNSGGDLGFFGPGVMMKPFEDAARSLNVGEVSGVVRTESGLHIIKRLA”, the “soluble on expression in E. coli” value was “soluble”.

As to “MGFYLTSRIMKNIKSQGNGEQPAISRRHFIQASSALIALPFVSSPATAQARAVTATENRPAEKVVQTCSTFDCGGKCDIRAHVSDGIVTRISTRPDNALDAQMPVMRACVRGRAYRKFVYHPDRLKYPMKRVGKRGEGKFERISWDEATTLIADNLKSITEKYGPASRYVHVGTAVSGGTFSGDKMARRLLNLTGGYLESYHSVSMGNTAAATPYTYGIAASGSSLDTLLDTKLVILWGHNPTETIFGHTNYFLQKMKQNGTRFIVVDPRYSDTVSSLADQWIPLLPTTDNALMDAMMYVIISENLHDRAFIARYAIGFDEDSMPEGVPANESLVAYLTGAKDGVVKSPEWAEKITHVPAQTIRQLARDYANTKPAALIQGWGPQRHNCGERTARGSTLLATITGNVGIKGGWAAGYGGCANRKFAAGPEMPDNPVKAKISVMNWVQAADDASKVTPDMGLKDADKLDSNIRILFSLAGNYLANQNPDLHQAVRVLEDESKIQFIVASDLFMTPSAKYADLLLPETSFMERWNIGETWGTASYLILSEKLIEPEFERRSDYDWLREVAAKLGIENEFSQGRDEKAWIEHIWEQTRLAMPDENLPDFATLQKTRQHLFKSAPFIAFEDNIRDPENHPFPTPSGKIEIFSKRLYDMQHPEIPALSHYVPAHEGPEDALAKDFPLQLITWKGKNRANSTQYANPWLIEVQQQTLWINPQDAQKRGITHGDMVRIHNSRGICEIPAEVTPRIIPGVVAMQAGAWWQPDENGVDKGGCANVLSSARITALAKGNSHQTMLVEVAKA”, the “soluble on expression in E. coli” value is “not soluble”.

In the case of “MGSDKIHHHHHHMTVCIACGSTKVEPFLDLHETTLANKFLAPEEIGAVEPRHPLVVGFCPECSHVQLTHLVPPAAMFEDYLYISSLSKTLVGHLHGLAATVIERFKLGADDLFIDVGCNDGTLLSEAKRRGVRILGIDPAKNLAPLAKKNGVDTLVAFFGTETAAKVVAEHGKASVVTATNVFPHIPVLDDLVKGLDVVLKPGGVFVAEAHYLGDLLDACAFDTVYHEHCSYWSLHAAQYMFQRHGFEVVDIQRLPIHHGQLRLFAMRKGEGQPTAAVATLLAEEVKRGMTGIECYRAFAKRVEAIREELHAAFAGFKAAGKTVVGYGAPAKGNTLLSYIGFGPEQLAYIADKSPLKQGRVTPGTHIPVVGPERLLADQPDYVLLLAWNFADEILVEQAEYRARGGKFILPVPEVKIV”, the “soluble on expression in E. coli” value was “not soluble”.

As for “MSDAMPLDQTLEQLTQDEWIDIPQGWSQGRTIYGGLVAGLLMHKALSVMNDESKNLLSTSITFVGPVNEGRVRLTVEILRQGKSVTTIEARLWQDQAVQTILIASFGQPRSLEHHHHHH”, the “soluble on expression in E. coli” value is given as “not soluble”.

With “MNNDVTRILKDARDQGRLTALDYAELIFDNFMELHGDRQFADDKSIIGGLGYLAGRPVTIVGIQKGKNLQDNLDRHFGQPHPEGYRKALRLMKQAEKFGRPVITFINTAGAYPGVGAEERGQGEAIARNLLEMSDLKVPIIAIIIGEGGSGGALALAVADKVWMLEHTVYSILSPEGFASILWKDGTRTTEAAQLMKMTAGELYHMEVVDKVIPEHGYFSSEIVDMIKTSLISELEVLSQLSLEDLLEQRYQRFRKY”, the “soluble on expression in E. coli” value is “not soluble”.

For “MGISEIIRSHRKKENLTQEQVANYLNISTPAVNKWENGITYPDITLLAPLARILKIDVNTLLAFNEELTEKEVNKLGRSVGEIVEKEGYQKAFEKGSDLIKQYSSCDELILRISSILRLFLVTAKVEKKDIYEDKIIAWAEIVAASRNEKTADMAKIFLSAVYRDKKEYKKAKEILDKVPDMELGSDKKIQQLLLLESSGEFDKAYGACEEVLLYNAQESLGAMVLIIRMLLKENKFSEAEEYTQRAKKLVEVFDLGEYSKYTLELSLIKEKRDEEKAVELIRNMIDNADSMNNFMRSKLYKHRKIEVTNSLDKDRYKKIVRMSIIKDKALDFVKDDPRVKSLLK”, the “soluble on expression in E. coli” value is given as “not soluble”.

In the case of “MATTTMTMIQALRSAMDVMLERDDNVVVYGQDVGYFGGVFRCTEGLQTKYGKSRVFDAPISESGIVGTAVGMGAYGLRPVVEIQFADYFYPASDQIVSEMARLRYRSAGEFIAPLTLRMPCGGGIYGGQTHSQSPEAMFTQVCGLRTVMPSNPYDAKGLLIASIECDDPVIFLEPKRLYNGPFDGHHDRPVTPWSKHPHSAVPDGYYTVPLDKAAITRPGNDVSVLTYGTTVYVAQVAAEESGVDAEVIDLRSLWPLDLDTIVESVKKTGRCVVVHEATRTCGFGAELVSLVQEHCFHHLEAPIERVTGWDTPYPHAQEWAYFPGPSRVGAALKKVMEV”, the “soluble on expression in E. coli” value was “soluble”.

Turning to “MAHHHHHHGTEKTPDDVFKLAKDEKVEYVDVRFCDLPGIMQHFTIPASAFDKSVFDDGLAFDGSSIRGFQSIHESDMLLLPDPETARIDPFRAAKTLNINFFVHDPFTLEPYSRDPRNIARKAENYLISTGIADTAYFGAEAEFYIFDSVSFDSRANGSFYEVDAISGWWNTGAATEADGSPNRGYKVRHKGGYFPVAPNDQYVDLRDKMLTNLINSGFILEKGHHEVGSGGQAEINYQFNSLLHAADDMQLYKYIIKNTAWQNGKTVTFMPKPLFGDNGSGMHCHQSLWKDGAPLMYDETGYAGLSDTARHYIGGLLHHAPSLLAFTNPTVNSYKRLVPGYEAPINLVYSQRNRSACVRIPITGSNPKAKRLEFRSPDSSGNPYLAFSAMLMAGLDGIKNKIEPQAPVDKDLYELPPEEAASIPQTPTQLSDVIDRLEADHEYLTEGGVFTNDLIETWISFKRENEIEPVNIRPHPYEFALYYDV”, the “soluble on expression in E. coli” value is “soluble”.

For “MGSDKIHHHHHHMNLKSGYPFWSIRNGLMRPYPRLEQDTHCEVAIIGGGVTAALIAHELLRHGHEVVVIEQREIGWGSTSASTALLQYEIDTPMVDLAAQYGMPAAALAYGACAKAILDLQELCDGLGGCDFTRQDSLYYASRARDLKDLQRELDARKTHALPVEWIAGDALWHDYGVRSEGAILSRLAASVDPYRLCYRLFAECEQYGGRIYDRSPIATLQAHDQHVDLRTQDGVNVRARHVIMAAGYGNQQWLSQRVARNRSSYAFVTDPLHDTDVGALKHTMMWETARPYLYVRTTADGRVVAGGEDDSIDIPARRDARVLSKMDTLLKKIAKVMPDVRLRPVFAWGGTFAETADGLPFFGTHSEHGPRVAFAMAYGGNGITYSAIGAGLLRAQLEGRAYPLSDLFGFSRLG”, the “soluble on expression in E. coli” value is reported as “not soluble”.

Consider “TTNKPIVLSTWNFGLHANVEAWKVLSKGGKALDAVEKGVRLVEDDPTERSVGYGGRPDRDGRVTLDACIMDENYNIGSVACMEHIKNPISVARAVMEKTPHVMLVGDGALEFALSQGFKKENLLTAESEKEWKEWLKTSQYKPIVNIENHDCIGMIALDAQGNLSGACTTSGMAYKMHGRVGDSPIIGAGLFVDNEIGAATATGHGEEVIRTVGTHLVVELMNQGRTPQQACKEAVERIVKIVNRRGKNLKDIQVGFIALNKKGEYGAYCIQDGFNFAVHDQKGNRLETPGFALK”, for which the “soluble on expression in E. coli” value was “soluble”.

“MSLAQFYSAKRRVTTRQIITVKVNDLDSFGQGVARHNGKALFIPGLLPEESAEVIITEDKKQFARARVSRRLNDSPERETPRCPHFGVCGGCQQQHVSIALQQRSKSAALARLMKHEVNDIIAGAPWGYRRRARLSLNCPPDKPLQMGFRKAGSSDIVNVEQCPVLAPQLAALLPRIRACLASLHGTRHLGHVELVQAGSGTLMILRHTAPLSAADKEKLERFSHSEGLSLFLAPFSEILETVSGEAPWYDSHGLRLAFSPRDFIQVNEAVNQQMVARALEWLDVRAEDRVLDLFCGMGNFTLPLATRAASVIGVEGVPALVEKGRENAIRNGLHNVTFFHENLEEDVTKQPWAKNGFDKVLLDPARAGATGVMRHIIKLKPIRIVYVSCNPATLARDSEALVNAGYEVTRLAMLDMFPHTGHLESMVLFERMEGHHHHHH”: the “soluble on expression in E. coli” value is listed as “soluble”.

On to “MSLEKMEDHFILCGYGLMGREIIKELPKDKVVVIDSDIGKVSAAREDGYVAVHGDATDDFTLEKAGIGKAKALICCMSDASNAFAILTAKELNPRIKTVAILRSPDAEKKMRRVGVDILLSPYRDAAKKIISLLSEKAVAEFVETVISGAKSLNLEKVVADEYMDGKTLRELDLRRRTGCIVVAVVRRGDVILPEADTRLEKGDILYILCSGEAPLELEGHHHHHH”, for which the “soluble on expression in E. coli” value is reported as “soluble”.

For the sequence “ESLCPQHHEALSLFCYEDQEAVCLICAISHTHRAHTVVPL”, the “soluble on expression in E. coli” value is “soluble”.

For the origin of these results see the DeepSol protein solubility set.
